Experiment [1] has as its target h1-107_r (human/rat chimera). The experiment in a line: live cell staining, flow cytometry, transfected HEK293. (In general: Flow cytometry measures light scatter and fluorescence of single cells or particles in a stream.)
A further experiment has as its target hTF_K149N (human) (UniProt P13726). The experiment is described as above.
Experiment [2] addresses r141-194_h (rat/human chimera) (UniProt P42533). The description is as above.
Experiment [3] has as its target h167-174_r (human/rat chimera) (UniProt P13726). The experiment in a line: live cell staining (HEK293, flow cytometry).
For experiment [4], the target named is h1-107_r (human/rat chimera). Put plainly: live cell staining (HEK293, flow cytometry).
In experiment [5] the target is h108-219_r (human/rat chimera). Put plainly: live cell staining (HEK293, flow cytometry).
Experiment [6] deals with h159-189_r (human/rat chimera) (UniProt P13726). Put plainly: live cell staining (HEK293, flow cytometry).
For experiment [7], the target named is h159-219_r (human/rat chimera). Put plainly: live cell staining (HEK293, flow cytometry).
Experiment [8] deals with h159-174_r (human/rat chimera) (UniProt P13726). Put plainly: live cell staining (HEK293, flow cytometry).
Experiment [9] addresses r141-194_h (rat/human chimera) (UniProt P42533). Put plainly: live cell staining (HEK293, flow cytometry).
In experiment [10] the target is human Tissue Factor (TF) (human) (UniProt P13726). Put plainly: cell-based or functional assay.
Experiment [11] has as its target full-length mouse TF with a C-terminal FLAG tag on Flp-In-CHO cells (mouse) (UniProt P20352). Put plainly: flow cytometry on CHO cells expressing mouse TF, MFI at 250 nM antibody.

Some results are limits rather than exact numbers.

Sequence of h1-107_r (human/rat chimera) (chain, as listed by the source mutant limits assumed): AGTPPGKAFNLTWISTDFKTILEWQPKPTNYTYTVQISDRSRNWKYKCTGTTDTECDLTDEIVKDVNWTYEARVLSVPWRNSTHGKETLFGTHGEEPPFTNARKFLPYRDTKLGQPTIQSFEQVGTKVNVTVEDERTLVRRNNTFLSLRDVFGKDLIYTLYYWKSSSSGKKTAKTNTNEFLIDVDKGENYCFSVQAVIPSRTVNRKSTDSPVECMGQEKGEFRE
Sequence of h108-219_r (human/rat chimera) (chain, as listed by the source mutant limits assumed): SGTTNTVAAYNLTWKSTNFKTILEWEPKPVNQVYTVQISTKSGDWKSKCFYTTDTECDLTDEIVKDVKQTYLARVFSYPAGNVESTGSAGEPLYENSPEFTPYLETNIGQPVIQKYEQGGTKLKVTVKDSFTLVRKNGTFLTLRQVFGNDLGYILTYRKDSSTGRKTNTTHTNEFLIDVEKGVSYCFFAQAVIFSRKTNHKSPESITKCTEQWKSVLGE

On to “5G9 (humanized TF8-5G9, CNTO 860) (antibody)”, for which the percent antibody binding to TF construct relative to hTF came out at 41% in experiment [1], 145% in the experiment with hTF_K149N (human) and 32% in experiment [2]. Besides, the Percentage antibody binding to TF construct relative to hTF in experiment [3], in [4], in [5], in experiment [6], in experiment [7] and in [8] was less than 50% in each case. This substance returned a Percentage antibody binding to TF construct relative to hTF in experiment [9] of less than 50%.

Consider Control, for which, in experiment [10], the % GM-CSF at 2.56 nM stood at 88%, the % GM-CSF at 6.4 nM came to 86%, the % GM-CSF at 100 nM came out at 105% and the % IL8 at 2.56 nM came to 90%. In experiment [10], the % IL8 at 6.4 nM came to 88% and the % IL8 at 16 nM turned out to be 84%.

As to IgG1 isotype control (antibody), the MFI at 250 nM in experiment [11] turned out to be 7400.

The values are drawn from patent US20250361322A1.
